The text below walks through data of paper PMC8567202, “Phosphoinositide-binding activity of Smad2 is essential for its function in TGF-β signaling” (The Journal of Biological Chemistry, 2021).

Substitutions are numbered along the chain they refer to. Numbers in names are those of the source. Entries after “also recorded” stand apart in the source; their conditions may differ.

B1: Smad2 WT: bacterially expressed full-length Smad2 wild-type (protein)
chain: MSSILPFTPPVVKRLLGWKKSAGGSGGAGGGEQNGQEEKWCEKAVKSLVKKLKKTGRLDELEKAITTQNCNTKCVTIPSTCSEIWGLSTANTVDQWDTTGLYSFSEQTRSLDGRLQVSHRKGLPHVIYCRLWRWPDLHSHHELKAIENCEYAFNLKKDEVCVNPYHYQRVETPVLPPVLVPRHTEILTELPPLDDYTHSIPENTNFPAGIEPQSNYIPETPPPGYISEDGETSDQQLNQSMDTGSPAELSPTTLSPVNHSLDLQPVTYSEPAFWCSIAYYELNQRVGETFHASQPSLTVDGFTDPSNSERFCLGLLSNVNRNATVEMTRRHIGRGVRLYYIGGEVFAECLSDSAIFVQSPNCNQRYGWHPATVCKIPPGCNLKIFNNQEFAALLAQSVNQGFEAVYQLTRMCTIRMSFVKGWGAEYRRQTVTSTPCWIELHLNGPLQWLDKVLTQMGSPSVRCSSMS
modifications: left off: His6, N-terminal, state not stated
notes: bacterially expressed full-length Smad2 wild-type
B2: Smad2-W422A: W422A mutant of full-length Smad2; specific PI(4,5)P2 binding-compromised (protein)
chain: B1 chain with W422A
modifications: left off: His6, N-terminal, state not stated
B3: Smad2-Y426A: Y426A mutant of full-length Smad2; specific PI(4,5)P2 binding-compromised (protein)
chain: B1 chain with Y426A
modifications: left off: His6, N-terminal, state not stated
B4: Smad2-E425K: charge-reversal mutant of full-length Smad2; PI(4,5)P2 and TβRI binding-enhanced (protein)
chain: B1 chain with E425K
modifications: left off: His6, N-terminal, state not stated
B5: Smad2-K420A: K420A mutant of full-length Smad2; predominantly TβRI binding-compromised (protein)
chain: B1 chain with K420A
modifications: left off: His6, N-terminal, state not stated
B6: Smad2- R427A/R428A: double mutant of full-length Smad2; PI(4,5)P2 and TβRI binding-compromised (protein)
chain: B1 chain with R427A, R428A
modifications: left off: His6, N-terminal, state not stated

One test concerns TβRI GS region peptide (F-Ahx-YDMTTpSGpSGpSGLPLL). Kind of test: Fluorescence anisotropy binding to TβRI GS peptide. The note with it: 50 μM POPC/POPS/PI(4,5)P2 (77:20:3) LUVs. From the text:
(§1) However, this tentative assignment has been confirmed neither by a high-resolution structure of the Smad2-TβRI complex nor by a quantitative and systematic binding study, leaving uncertainty about the exact nature of the Smad2-TβRI-binding interface. Since the L3 loop is a part of the newly identified PI(4,5)P2-binding site, we checked if these PI(4,5)P2-binding residues are also involved in the Smad2-TβRI interaction using two fluorescein-labeled synthetic peptides derived from the GS region (i.e., GS peptide: fluorescein-aminohexanoyl (F-Ahx)-YDMTTpSGpSGpSGLPLL) and the L45 loop (i.e., L45 peptide: F-Ahx-ADNKDNGT), respectively. In particular, the GS peptide represents the GS motif triply phosphorylated by TβRII. We then measured binding to Smad2 WT and mutants to these peptides by fluorescence anisotropy according to our established protocol ([21]). […] We thus primarily used the GS peptide to assess the effects of mutations on the Smad2-TβRI interaction. […] They also yielded distinct structural variants for further functional studies. Specifically, W422A and Y426A could serve as specific PI(4,5)P2 binding-compromised mutants and K420A as a predominantly TβRI binding-compromised mutant. R427A/R428A could also serve as a PI(4,5)P2 and TβRI binding-compromised mutant, whereas E425K as a PI(4,5)P2 and TβRI binding-enhanced mutant.
(§2) Figure 3 Affinity of Smad2 WT and mutants for TβRI-derived peptides determined by fluorescence anisotropy.A, binding of Smad2 WT (black), W422A (red), Y420A (cyan), R427A/R428A (green), K420A (blue), and E425K (orange) to the GS peptide (F-Ahx-YDMTTpSGpSGpSGLPLL). […] B, binding of Smad2 WT (black), W422A (red), Y420A (cyan), R427A/R428A (green), K420A (blue), and E425K (orange) to the L45 loop peptide (F-Ahx-DNKDNGT). C, effects of 50 μM POPC/POPS/PI(4,5)P2 (77:20:3) LUVs on binding of Smad2 to the GS peptide. The presence of vesicles (orange) raises the Kd value from 20 ± 6 to 60 ± 7 nM. The peptide concentration was fixed at 2.5 nM, and the Smad2 concentration was varied from 0 to 150 μM. The experimentally observed anisotropy (A) values were normalized (Anorm) using the equation: Anorm = (A − Amin)/(Amax − Amin) where Amax and Amin are maximal and minimal A values, respectively, for each measurement. The plots of Anormversus [Smad2] were analyzed by the nonlinear least-squares analysis using the equation: Anorm = 1/(1 + Kd/[Smad2]).
(§3) The fluorescein-6-aminohexanoyl (F-Ahx)-labeled TβRI GS region peptide (F-Ahx-YDMTTpSGpSGpSGLPLL) was dissolved in dimethyl sulfoxide to yield 1 mg/ml stock solution, F-Ahx-labeled TβRI L45 loop region peptide (F-Ahx-ADNKDNGT) was dissolved in a 3:1 mixture of water and acetonitrile to yield 2.5 mg/ml stock solution. Both peptide solutions were diluted to 1 to 10 μM with 20 mM Tris buffer, pH 7.9, containing 160 mM NaCl for binding studies. In total, 300 μl of the Smad2 (WT or mutant) solution (0–250 μM) was added to a series of 1.5 ml microcentrifuge containing the peptide solution (2.5 μM). After 10-min incubation in the dark, the mixture was transferred to a quartz cuvette with 2-mm path length and fluorescence anisotropy (r) was measured with excitation and emission wavelengths set at 485 and 535 nm, respectively, using Horiba Flurolog-3 spectrofluorometer. Since Po >> Pepo under our conditions, the Kd for the Smad2-peptide binding was determined by the nonlinear least-squares analysis of the binding isotherm using the Equation 1:(1) Pepbound/Pep0=Δr/Δrmax=1/1+kd/P0 where Pepbound, Pep0, and P0 indicate the concentration of bound peptide, total peptide, and total Smad2, respectively, and Δr and Δrmax are the anisotropy change for each P0 and the maximal Δr, respectively.
B1: the “effect of PI(4,5)P2 LUVs on binding to the GS peptide” value was “significantly interfered with binding of Smad2 to the GS peptide”.

Staying with this test, now noted: fluorescence anisotropy.
On to B2, for which the “GS peptide affinity relative to WT” value is recorded as “essentially the same affinity as the WT; also recorded: essentially identical binding curves”.

On to B3, for which the “GS peptide affinity relative to WT” value is “essentially the same affinity as the WT”.

With B4, the “GS peptide affinity relative to WT” value was “twofold higher affinity”.

For the molecule B5, the “GS peptide affinity relative to WT” value is “tenfold decrease; also recorded: tenfold lower affinity than the WT”.

As to B6, the “GS peptide affinity relative to WT” value was “twofold lower affinity than the WT”.

The test is the same for the next values; noted with them: fluorescence anisotropy, 20 mM Tris, pH 7.9, 160 mM NaCl, 10-min incubation; average ±S.D., n = 3; read-out: Kd for peptide binding, GS peptide.
For the molecule B2, the Kd came out at 21 ± 5 µM.

For B3, the equilibrium dissociation constant (Kd) was determined as 20 ± 3 µM.

For B1, the dissociation constant Kd was 20 ± 6 µM.

Regarding B4, the Kd is 8 ± 0.8 µM.

Turning to B5, the Kd amounted to 200 ± 48 µM.

B6: the Kd worked out at 44 ± 4 µM.

Staying with this test, now noted: fluorescence anisotropy, Kd comparison.
Take B1: the “binding to GS peptide relative to L45 peptide” value is given as 3.3 times.

The same test, now with this note: fluorescence anisotropy; listed as Y420A.
B3: the “GS peptide affinity relative to WT” value was “essentially identical binding curves”.

The same test, now with this note: with 50 μM POPC/POPS/PI(4,5)P2 (77:20:3) LUVs; fluorescence anisotropy, Smad2 0 to 150 μM; read-out: Kd, GS peptide, in the presence of vesicles.
On to B1, for which the dissociation constant Kd worked out at 0.06 ± 0.007 µM.

The test is the same for the next values; noted with them: without LUVs; fluorescence anisotropy, Smad2 0 to 150 μM; read-out: Kd, GS peptide, without vesicles.
On to B1, for which the Kd came to 0.02 ± 0.006 µM.

The next test has as its system TβRI L45 loop region peptide (F-Ahx-ADNKDNGT). Kind of test: Fluorescence anisotropy binding to TβRI L45 peptide.
Conditions: not given
Excerpt: as §1, §2, §3
As to B2, the “L45 peptide affinity relative to WT” value was “WT-like affinity”.

Turning to B3, the “L45 peptide affinity relative to WT” value was “WT-like affinity”.

In the case of B4, the “L45 peptide affinity relative to WT” value is on record as “slightly higher affinity”.

As for B5, the “L45 peptide affinity relative to WT” value was “lowest affinity”.

On to B6, for which the “L45 peptide affinity relative to WT” value is recorded as “slightly lower affinity”.

Still in this test, the particulars now being: 20 mM Tris, pH 7.9, 160 mM NaCl, 10-min incubation, average ±S.D., n = 3.
In turn, B2 showed a Kd of 67 ± 6 µM.

For B3, binding was put at a Kd of 70 ± 7 µM.

Regarding B1, the Kd is 66 ± 4 µM.

For the molecule B4, the Kd came out at 55 ± 3 µM.

On to B5, for which binding was characterised by a dissociation constant (Kd) of 100 ± 16 µM.

In the case of B6, the Kd stood at 75 ± 11 µM.
